# Measured values: patent US20160319361, “OLIGONUCLEOTIDE PROBES AND USES THEREOF” (CARIS LIFE SCIENCES SWITZERLAND HOLDINGS GMBH, published 2016)
# B1: BTX176881 (ssDNA)
# DNA: CCCGATTTTGGTACCGCGGGGATCCGCGTCTG
# Target: T1, EpCAM (UniProt P16422 P16422:24-265)
# T1 sequence: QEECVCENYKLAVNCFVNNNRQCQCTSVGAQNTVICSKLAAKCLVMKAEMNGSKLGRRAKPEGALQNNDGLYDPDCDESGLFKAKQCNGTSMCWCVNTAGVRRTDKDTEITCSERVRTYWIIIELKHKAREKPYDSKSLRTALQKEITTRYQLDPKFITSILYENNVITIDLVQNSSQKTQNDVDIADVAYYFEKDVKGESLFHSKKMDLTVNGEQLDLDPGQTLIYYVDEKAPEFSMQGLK
# Assay: SPR; immobilized biotinylated aptamer, EpCAM analyte; HBS-EP+ buffer
# Details: label: biotin via tail
# Experimental: FIG. 5 illustrates results from a binding assay showing the binding affinity of an exemplary aptamer (Aptamer ID BTX176881 (SEQ ID NO: 3)) to the target EpCAM protein at various target concentrations. The aptamer to be tested is fixed to a substrate using a biotin tail and is incubated with various concentrations of target (125, 250 and 500 nM). The test is performed on a surface plasmon resonance machine (SPR). The SPR machine detects association and disassociation of the aptamer and the target. Target is applied until the association and disassociation events are equal, resulting in a plateau of the curve. The equations describing the curve at each concentration can then be used to calculate the KD of the aptamer (see Table 5).
# The Biacore 200 control software is programmed with the following conditions: Solution: HBS-EP+ Buffer; Number of cycles: 3; Contact time: 120s; Flow rate: 30 μl/min; Dissociation time: 300s; Solution: Glycine-HCl pH 2.5; Contact time: 120s; Flow rate: 20 μl/min; Stabilization period: 0s. The binding affinities of these aptamers are then measured using the SPR assay above, or an alternate in vitro assay assessing the aptamer for a desired function.
binder,measurement,value
B1,Kd,8.4 nM
